Results on 3 molecules are retold here after patent US20030059436A1, “Band 3 antigenic peptides, malaria polypeptides and uses thereof” (priority 2001, published 2003).

In assay [1] the test system is RBCs. To be noted: literature reports; cited from earlier work.
Assay [2] concerns the target T1, GST-5ABC (Homo sapiens, UniProt P02730).
T1 construct: The 5ABC (amino acid 720-761), 5BC (731-761), and 6AB (807-842) genes were amplified from a human reticulocyte cDNA library; made in house; host or cells: E. coli (pGEX-2TK)
T1 sequence (P02730 720-761): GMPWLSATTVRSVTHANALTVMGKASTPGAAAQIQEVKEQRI
Briefly: Native MSP1 binding to GST-5ABC beads. To be noted: Triton X-100 parasite extract, 22-24 h at 4° C.; GST beads as control.
Description: Radiolabeled parasite protein extract (180 μl) was incubated with either mAb 5.2 (20 μl) or GST-5ABC beads (40 μl, 50% slurry) for 22-24 h at 4° C. Protein G agarose beads (50 μl, 50% slurry) were added to the former mixture and further incubated for 3h. In both samples, beads were washed with PBS (2×) and proteins associated with beads were analyzed by SDS-PAGE followed by Coomassie staining and autoradiography. GST beads were used as control.
Trophozoite-infected RBCs (60-100 μl packed volume) were purified on 70% Percoll gradient from a synchronized P. falciparum (3D7) culture and returned to culture in RPMI (without methionine, cysteine, and leucine) containing 15% human serum without adding fresh RBCs. ^35S-methionine and cysteine (3:1 mixture, 1.6 mCi, specific activity 1,175 Ci/mmol, NEN (PerkinElmer Life Sciences, Boston, Mass.) and ^3H-leucine (250 μCi, specific activity 166 Ci/mmol, Amersham Pharmacia Biotech) was then added and the culture was kept for 12 hr. The radioactive medium was replaced with the cold RPMI with 15% serum, and incubation continued on shaker (60-80 rpm) until segmenters and released merozoites appeared in the culture (about 8 h). Pellets were collected initially from the culture (500 rpm, 7 min) and then from the resulting supernatant (3,500 rpm, 15 min). Combined pellets were stored at −80° C. or used immediately in the next step. […]

In assay [3] the test system is human RBCs fixed in methanol. To be noted: GST-MSP142 1 μM, GST-MSP138 8 μM; GST alone did not bind. The protocol:
(§1) RBCs freshly collected into citrate phosphate dextrose buffer were washed (3×) and resuspended in RPMI (20% hematocrit). Thin smears of RBCs on glass slides were allowed to air-dry and fixed in methanol (20-30 sec). The slides were washed with PBS (1×), blocked with 10% fetal bovine serum (FBS) in PBS (pH 7.4) for 1.5 h at 37° C., and again washed with PBS (5×, 10 min each). Fixed cells were incubated with GST-MSP142 (1 μM), GST-MSP138 (8 μM), or GST (9 μM) for 3.5 h at 37° C. in 10% FBS. Slide samples were washed with PBS (5×), incubated with goat anti-GST antibody (1:1,000, Amersham Pharmacia Biotech), washed again (5×), and incubated with rabbit anti-goat FITC-conjugated antibody (1:60, Sigma-Aldrich, St. Louis, Mo.). For visualizing spectrin, fixed cells treated with 10% FBS were incubated with a rabbit antibody raised against human spectrin (Sigma-Aldrich) followed by goat anti-rabbit FITC-conjugated antibody. All dilutions of proteins and antibodies were made in 10% FBS except FITC-conjugated antibodies.
(§2) First, the above-described RBC binding assay was performed using ^32P-labeled MSP119 and intact Band 3 (−/−) mouse RBCs in suspension. […] In the second method, we carried out an indirect immunofluorescence assay (IFA) using wild-type human and mouse RBCs and Band 3 (−/−) mouse RBCs fixed in methanol.

Assay [4] deals with mouse RBCs fixed in methanol. To be noted: GST-MSP142 1 μM, GST-MSP138 8 μM. The protocol: as §1, §2
The target in assay [5] is T2, SV40 large T-antigen fused to GAL4 AD (pGADT7 vector), two-hybrid control (UniProt P03070 86-708).
T2 construct: Kit control; also called pGADT7-T
T2 sequence (P03070 86-708 limits assumed): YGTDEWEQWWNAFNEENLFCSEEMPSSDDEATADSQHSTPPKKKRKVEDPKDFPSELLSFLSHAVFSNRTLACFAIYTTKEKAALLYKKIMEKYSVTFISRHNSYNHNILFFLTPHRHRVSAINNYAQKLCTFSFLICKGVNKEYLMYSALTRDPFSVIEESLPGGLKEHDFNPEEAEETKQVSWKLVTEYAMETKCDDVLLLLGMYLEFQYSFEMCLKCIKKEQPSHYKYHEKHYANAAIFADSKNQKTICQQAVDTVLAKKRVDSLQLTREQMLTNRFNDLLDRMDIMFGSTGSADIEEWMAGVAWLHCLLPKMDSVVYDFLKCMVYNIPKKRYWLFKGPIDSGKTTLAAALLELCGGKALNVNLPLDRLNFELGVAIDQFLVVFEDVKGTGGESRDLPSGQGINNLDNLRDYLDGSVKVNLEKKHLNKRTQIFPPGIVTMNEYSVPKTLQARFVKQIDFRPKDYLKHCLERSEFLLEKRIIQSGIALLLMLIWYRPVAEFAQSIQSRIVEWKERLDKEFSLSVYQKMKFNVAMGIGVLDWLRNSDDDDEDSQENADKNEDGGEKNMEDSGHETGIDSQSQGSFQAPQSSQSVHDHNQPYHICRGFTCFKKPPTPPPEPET
Put plainly: yeast two-hybrid assay (negative control).
Excerpt: For the yeast two-hybrid assay, the co-transformation method was used to analyze the protein interaction in yeast AH109 cells using SD/-Leu/-Trp selection plates.

On to “MSP1: P. falciparum merozoite surface protein-1, native full-length”, for which, in assay [1], the “binding to RBCs (earlier studies)” value is listed as “bound to RBCs in sialic acid-dependent manner”. Besides, the “binding of radiolabeled native parasite protein to GST-5ABC beads” value in assay [2] was “bound specifically to the 5ABC domain”.

B1: MSP142: 42 kDa proteolytic fragment of P. falciparum MSP1 (FCB1 strain) (protein)
chain: AISVTMDNILSGFENEYDVIYLKPLAGVYRSLKKQIEKNIFTFNLNLNDILNSRLKKRKYFLDVLESDLMQFKHISSNEYIIEDSFKLLNSEQKNTLLKSYKYIKESVENDIKFAQEGISYYEKVLAKYKDDLESIKKVIKEEKEKFPSSPPTTPPSPAKTDEQKKESKFLPFLTNIETLYNNLVNKIDDYLINLKAKINDCNVEKDEAHVKITKLSDLKAIDDKIDLFKNPYDFEAIKKLINDDTKKDMLGKLLSTGLVQNFPNTIISKLIEGKFQDMLNISQHQCVKKQCPENSGCFRHLDEREECKCLLNYKQEGDKCVENPNPTCNENNGGCDADATCTEEDSGSSRKKITCECTKPDSYPLFDGIFCS
As for B1, the “binding to wild-type human RBCs (IFA)” value in assay [3] is listed as “bound”. Further, the “binding to Band 3 (−/−) mouse RBCs (IFA)” value in assay [4] is listed as “neither GST-MSP142, GST-MSP138, nor GST alone bound”. Further, the “binding to wild-type mouse RBCs (IFA)” value in assay [4] (GST alone did not bind) was “bound”. Also, in assay [2], the “binding of radiolabeled native parasite protein to GST-5ABC beads” value was “bound specifically to the 5ABC domain”.

B2: Lamin C fused to GAL4 DNA-BD (pGBKT7 vector), two-hybrid control (other)
chain: MKLLSSIEQACDICRLKKLKCSKEKPKCAKCLKNNWECRYSPKTKRSPLTRAHLTEVESRLERLEQLFLLIFPREDLDMILKMDSLQDIKALLTGLFVQDNVNKDAVTDRLASVETDMPLTLRQHRISATSSSEESSNKGQRQLTVSSEEVVSREVSGIKAAYEAELGDARKTLDSVAKERARLQLELSKVREEFKELKARNTKKEGDLIAAQARLKDLEALLNSKEAALSTALSEKRTLEGELHDLRGQVAKLEAALGEAKKQLQDEMLRRVDAENRLQTMKEELDFQKNIYSEELRETKRRHETRLVEID
notes: Kit control
With B2, the binding result in assay [5] is “no binding”.
